In patent US20100285988A1 (published 2010):

target: γ-secretase (human; HeLa cell membrane / solubilized HeLa membrane; endogenous in HEK293 cells) (human, UniProt P49768 1-467; Q92542 34-709; Q9NZ42 1-101; Q96BI3 1-265)

Binder	IC50
LVFFAKD [Aβ17-23 heptapeptide with the Italian mutation (E22K)]	2130 nM
LVFFAEN [Aβ17-23 heptapeptide with the Iowa mutation (D23N)]	2940 nM
LVFFGED [Aβ17-23 heptapeptide with the Flemish mutation (A21G)]	5270 nM
LVFFAQD [Aβ17-23 heptapeptide with the Dutch mutation (E22Q)]	2120 nM
LVFFAGD [Aβ17-23 heptapeptide with the Arctic mutation (E22G)]	3890 nM
